Residue numbers refer to the chain shown, from its start. Names may count otherwise.
B1: SHMT1 wild type (enzyme, human, UniProt P34896 1-483, looked up)
chain: MTMPVNGAHKDADLWSSHDKMLAQPLKDSDVEVYNIIKKESNRQRVGLELIASENFASRAVLEALGSCLNNKYSEGYPGQRYYGGTEFIDELETLCQKRALQAYKLDPQCWGVNVQPYSGSPANFAVYTALVEPHGRIMGLDLPDGGHLTHGFMTDKKKISATSIFFESMPYKVNPDTGYINYDQLEENARLFHPKLIIAGTSCYSRNLEYARLRKIADENGAYLMADMAHISGLVAAGVVPSPFEHCHVVTTTTHKTLRGCRAGMIFYRKGVKSVDPKTGKEILYNLESLINSAVFPGLQGGPHNHAIAGVAVALKQAMTLEFKVYQHQVVANCRALSEALTELGYKIVTGGSDNHLILVDLRSKGTDGGRAEKVLEACSIACNKNTCPGDRSALRPSGLRLGTPALTSRGLLEKDFQKVAHFIHRGIELTLQIQSDTGVRATLKEFKERLAGDKYQAAVQALREEVESFASLFPLPGLPDF
B2: SHMT2ΔN (residues 18-504), dimeric (PLP-free) form (enzyme, human, UniProt P34897 18-504, looked up)
chain: QLVRMAIRAQHSNAAQTQTGEANRGWTGQESLSDSDPEMWELLQREKDRQCRGLELIASENFCSRAALEALGSCLNNKYSEGYPGKRYYGGAEVVDEIELLCQRRALEAFDLDPAQWGVNVQPYSGSPANLAVYTALLQPHDRIMGLDLPDGGHLTHGYMSDVKRISATSIFFESMPYKLNPKTGLIDYNQLALTARLFRPRLIIAGTSAYARLIDYARMREVCDEVKAHLLADMAHISGLVAAKVIPSPFKHADIVTTTTHKTLRGARSGLIFYRKGVKAVDPKTGREIPYTFEDRINFAVFPSLQGGPHNHAIAAVAVALKQACTPMFREYSLQVLKNARAMADALLERGYSLVSGGTDNHLVLVDLRPKGLDGARAERVLELVSITANKNTCPGDRSAITPGGLRLGAPALTSRQFREDDFRRVVDFIDEGVNIGLEVKSKTAKLQDFKSFLLKDSETSQRLANLRQRVEQFARAFPMPGFDEH
B3: SHMT2ΔN+A285T (enzyme, human, UniProt P34897 18-504, looked up)
chain: B2 chain with A268T
B4: SHMT2ΔN (residues 18-504), PLP-bound tetramer (enzyme, human, UniProt P34897 18-504, looked up)
chain: B2 chain
modifications: pyridoxal-5'-phosphate (PLP) bound, internal aldimine linkage; PLP acceptor Lys280
B5: Flag-HA epitope-tagged SHMT2ΔN (MEFs) (enzyme, human, UniProt P34897 18-504, looked up)
chain: B2 chain

Legend:
[1] = biological target: the molecule itself; assay: SEC
[2] = biological target: the molecule itself; assay: SEC; remark: listed apart in the source
[3] = biological target: the molecule itself; assay: native gel or EMSA

| Protein | stoichiometry N [2] | other results |
| --- | --- | --- |
| B1 |  | stoichiometry N [1]: 4 |
| B2 | 2 |  |
| B3 | 2 |  |
| B4 | 4 |  |
| B5 |  | stoichiometry N [3]: 2 |

Reference: paper PMC6914362 (Nature, 2019)
